According to PMC3531502 (PLoS Biology, 2012):

T1: HET-s (full-length) (Podospora anserina, UniProt Q03689 1-289)
T1 construct: also called unlabeled monomeric full-length HET-s; HET-s prion
T1 sequence (looked up): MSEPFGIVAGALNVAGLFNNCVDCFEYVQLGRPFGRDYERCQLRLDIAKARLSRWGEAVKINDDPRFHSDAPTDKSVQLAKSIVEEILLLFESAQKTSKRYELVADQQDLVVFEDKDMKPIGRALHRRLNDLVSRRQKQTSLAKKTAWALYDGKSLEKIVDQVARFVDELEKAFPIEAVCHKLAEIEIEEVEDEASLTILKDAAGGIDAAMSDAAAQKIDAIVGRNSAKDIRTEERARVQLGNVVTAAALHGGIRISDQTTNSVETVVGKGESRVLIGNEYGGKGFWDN

B1: HET-S (full-length, residues 1-289) (natural protein, Podospora anserina, UniProt B2ACC7 1-289, looked up)
chain: MSEPFEIVAGALGVAGLFNNCVACFEYVQLGRHFGRDYERCQLRLDIAKVRLSRWGEAVQINDDPRFHSSAPIDKSVQLAKSIVEEILLLFESAQKTSKRYELVADQQDLVVFEDKDMKPIGRALHRRLKDLVSRRQKQTSLAKKTAWALYDGKSLEKIVDQVAGFVDELEKAFPIEAVCHKLAENEIEEVEDEASLTILKDAAGGIDAAMSDAAAQKIDAIVGRNSAKDIRTEKRARVQLGNVVTAAALHGEIRISDQTTNSVETVVGKGESKVLIGNEYGGKGFWDN
notes: also called HET-S protein; recombinant HET-S

What was measured:
[1] = target: B1; test: solid-state NMR (PAIN 13C-15N pol); settings: both partners purified
[2] = target: the molecule itself; test: solid-state NMR (PAIN 13C-15N pol)
[3] = target: T1, HET-s (full-length); test: solid-state NMR (NCA 2D and 3D co); settings: both partners purified
[4] = target: the molecule itself; test: solid-state NMR (NCA 2D and 3D co)

| Binder | binding result [1] | binding result [2] | binding result [3] | binding result [4] |
| --- | --- | --- | --- | --- |
| HET-s(218-289), prion-forming domain of HET-s (domain or fragment, Podospora anserina, UniProt Q03689 218-289, looked up, also called HET-s PFD; HET-s(218-289) amyloid seeds) KIDAIVGRNSAKDIRTEERARVQLGNVVTAAALHGGIRISDQTTNSVETVVGKGESRVLIGNEYGGKGFWDN | binds | binds | – | – |
| B1 | – | – | binds | binds |
